Source: patent US20220227830A1, “QD DOSING OF GIP RECEPTOR AGONIST PEPTIDE COMPOUNDS AND USES THEREOF” (Takeda Pharmaceutical Company Limited, priority 2020, published 2022)
Starred links: 1 amine or outer side, 2 acyl side, 3 side chain; linkers in the order of their positions; H or OH if unused. Non-standard residues stand in square brackets, D forms with d. Groups on a side chain read outwards from the residue. No end group written: not given here. *: point of attachment. G2E3 = linker of 2 Gly and 3 Glu (read GGEEE); C16 diacid = O=C(O)CCCCCCCCCCCCCCC(=O)*; C15 diacid = O=C(O)CCCCCCCCCCCCCC(=O)*; γGlu = O=C(O)[C@H](CCC(=O)[*:2])N[*:1]; NMeY = CN[C@@H](Cc1ccc(O)cc1)C(=O)O; AEEA = NCCOCCOCC(=O)O; Aib = CC(C)(N)C(=O)O

T1: full-length human GIPR with an N-terminal FLAG tag (human, UniProt P48546 22-466)
T1 sequence (looked up): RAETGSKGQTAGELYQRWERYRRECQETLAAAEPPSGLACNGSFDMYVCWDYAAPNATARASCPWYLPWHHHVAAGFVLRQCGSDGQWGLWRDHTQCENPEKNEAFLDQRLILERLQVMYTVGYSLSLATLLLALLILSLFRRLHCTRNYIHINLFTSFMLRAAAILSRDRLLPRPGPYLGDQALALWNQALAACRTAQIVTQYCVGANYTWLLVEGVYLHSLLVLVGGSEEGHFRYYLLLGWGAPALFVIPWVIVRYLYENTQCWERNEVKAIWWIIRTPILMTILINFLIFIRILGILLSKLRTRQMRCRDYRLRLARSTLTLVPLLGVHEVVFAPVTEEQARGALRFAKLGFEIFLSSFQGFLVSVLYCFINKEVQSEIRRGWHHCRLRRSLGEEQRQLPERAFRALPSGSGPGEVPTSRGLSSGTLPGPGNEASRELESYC


Legend:
[1] = target: full-length human GLP-1R with an N-terminal FLAG tag (human, UniProt P43220 24-463); assay: cell-based or functional assay
[2] = target: T1, full-length human GIPR with an …; assay: cell-based or functional assay

Binder	Human GLP1R cAMP HEK293T EC50 [1] [nM]	Human GIPR cAMP, HEK293T EC50 [2] [nM]
Me-Y[Aib]EGTFISDYSI[Aib]KDR[Aib]AQ[Aib]DFVNWLLAQSPSSGAPPPS-NH2 (not fully specified (residues 1, 14)) [Compound 140]	178	0.0004
Me-Y[Aib]EGTFISDYSIAKDR[Aib]AQ[Aib]DFVNWLLAQSPSSGAPPPS-NH2 (not fully specified (residues 1, 14)) [Compound 151]	145	0.0004
Me-Y[Aib]EGTFISDYSIAKDR[Aib]AQ[Aib]NFVNWLLAQRPSSGAPPPS-OH (not fully specified (residues 1, 14)) [Compound 147]	16.6	0.0011
[NMeY][Aib]EGTFISDYSI[Aib]LDRK([AEEA-AEEA-γGlu-γGlu-C15 diacid])AQ[Aib]NFVNWLLAQRGGGGS-NH2 [Compound 135]	646	0.0005
[NMeY][Aib]EGTFISDYSI[Aib]KDR[Aib]AQ[Aib]NFVNWLLAQRGGGGS-NH2 (not fully specified (residue 14)) [Compound 134]	1000	0.0004
Me-Y[Aib]EGTFISDYSI[Aib]LDR[Aib]AQ[Aib]NFVNWLLAQK([AEEA-AEEA-γGlu-γGlu-C15 diacid])GGGGS-NH2 [Compound 136]	407	0.0009
[NMeY][Aib]EGTFISDYSIALDRK([G5-γGlu-C15DA])AQ[Aib]DFVNWLLAQSPSSGAPPPS-NH2 [Compound 132]	21.9	0.0001
[NMeY][Aib]EGTFISDYSIALDRK([Gly-Gly-Gly-Gly-Gly-γGlu-C15 diacid])AQ[Aib]DFVNWLLAQRPSSGAPPPS-NH2 [Compound 137]	479	0.0002
Me-Y[Aib]EGTFISDYSIAKDR[Aib]AQ[Aib]DFVNWLLAQSPSSGAPPPG-OH (not fully specified (residues 1, 14)) [Compound 152]	302	0.0003
Me-Y[Aib]EGTFISDYSIAKDR[Aib]AQ[Aib]NFVNWLLAQSPSSGAPPPS-OH (not fully specified (residues 1, 14)) [Compound 150]	30.2	0.0003
Me-Y[Aib]EGTFISDYSIAK([γGlu-γGlu-γGlu-C15 diacid])DR[Aib]AQ[Aib]NFVNWLLAQSPSSGAPPPS-NH2 [Compound 18]	1000	0.0002
Me-Y[Aib]EGTFISDYSI[Aib]K([AEEA-AEEA-γGlu-γGlu-C15 diacid])DR[Aib]AQ[Aib]NFVNWLLAQSPSSGAPPPS-NH2 [Compound 139]	1000	0.0004
[NMeY][Aib]EGTFISDYSIALDR[Aib]KQ[Aib]NFVNWLLAQSGGGGS-NH2 (not fully specified (residue 18)) [Compound 133]	1000	0.0005
Me-Y[Aib]EGTFISDYSI[Aib]KDR[Aib]AQ[Aib]DFVNWLLAQSPSSGAPPPS-OH (not fully specified (residues 1, 14)) [Compound 156]	89.1	0.0002
[NMeY][Aib]EGTFISDYSIALDR[Aib]AQ[Aib]K([AEEA-AEEA-γGlu-γGlu-C15 diacid])FVNWLLAQR (not fully specified (N-terminus, C-terminus)) [Compound 15]	155	0.0003
Me-Y[Aib]EGTFISDYSIAK([AEEA-AEEA-γGlu-γGlu-C15 diacid])DR[Aib]AQ[Aib]NFVNWLLAQS (not fully specified (residue 1)) [Compound 16]	263	0.0003
Me-Y[Aib]EGTFISDYSIAKDS[Aib]AQ[Aib]DFVNWLLAQRPSSGAPPPS-NH2 (not fully specified (residues 1, 14)) [Compound 153]	389	0.0002
[NMeY][Aib]EGTFISDYSI[Aib]LDRK([AEEA-AEEA-γGlu-γGlu-C16 diacid])AQ[Aib]NFVNWLLAQRPSSGAPPPS-NH2 [Compound 145]	912	0.0004
Me-Y[Aib]EGTFISDYSI[Aib]KDR[Aib]AQ[Aib]DFVNWLLAQSG-OH (not fully specified (residues 1, 14)) [Compound 141]	64.6	0.0003
Me-Y[Aib]EGTFISDYSIAKDS[Aib]AQ[Aib]NFVNWLLAQSPSSGAPPPS-NH2 (not fully specified (residues 1, 14)) [Compound 154]	288	0.0003
Me-Y[Aib]EGTFISDYSIAKDR[Aib]AQ[Aib]DFVNWLLAQSPSSGAPPPS-OH (not fully specified (residues 1, 14)) [Compound 155]	295	0.0003
Me-Y[Aib]EGTFISDYSIAK([2OEG-γGlu-γGlu-C15 diacid])DR[Aib]AQ[Aib]NFVNWLLAQK-NH2 [Compound 22]	631	0.0003
[NMeY][Aib]EGTFISDYSIALDRK([Gly-Gly-Gly-Gly-Gly-γGlu-C15 diacid])AQ[Aib]NFVNWLLAQSPSSGAPPPS-NH2 (N-terminus assumed; SMILES CC[C@H](C)[C@H](NC(=O)[C@H](CO)NC(=O)[C@H](Cc1ccc(O)cc1)NC(=O)[C@H](CC(=O)O)NC(=O)[C@H](CO)NC(=O)[C@@H](NC(=O)[C@H](Cc1ccccc1)NC(=O)[C@@H](NC(=O)CNC(=O)[C@H](CCC(=O)O)NC(=O)C(C)(C)NC(=O)[C@H](Cc1ccc(O)cc1)NC)[C@@H](C)O)[C@@H](C)CC)C(=O)N[C@@H](C)C(=O)N[C@@H](CC(C)C)C(=O)N[C@@H](CC(=O)O)C(=O)N[C@@H](CCCNC(=N)N)C(=O)N[C@@H](CCCCNC(=O)CNC(=O)CNC(=O)CNC(=O)CNC(=O)CNC(=O)CC[C@H](NC(=O)CCCCCCCCCCCCCC(=O)O)C(=O)O)C(=O)N[C@@H](C)C(=O)N[C@@H](CCC(N)=O)C(=O)NC(C)(C)C(=O)N[C@@H](CC(N)=O)C(=O)N[C@@H](Cc1ccccc1)C(=O)N[C@H](C(=O)N[C@@H](CC(N)=O)C(=O)N[C@@H](Cc1c[nH]c2ccccc12)C(=O)N[C@@H](CC(C)C)C(=O)N[C@@H](CC(C)C)C(=O)N[C@@H](C)C(=O)N[C@@H](CCC(N)=O)C(=O)N[C@@H](CO)C(=O)N1CCC[C@H]1C(=O)N[C@@H](CO)C(=O)N[C@@H](CO)C(=O)NCC(=O)N[C@@H](C)C(=O)N1CCC[C@H]1C(=O)N1CCC[C@H]1C(=O)N1CCC[C@H]1C(=O)N[C@@H](CO)C(N)=O)C(C)C) [Compound 131]	75.9	0.0003
Me-Y[Aib]EGTFISDYSIAK([AEEA-γGlu-γGlu-γGlu-C15 diacid])DR[Aib]AQ[Aib]NFVNWLLAQK-NH2 [Compound 23]	363	0.0004
Me-Y[Aib]EGTFISDYSI[Aib]K([G2E3-C15 diacid])DR[Aib]AQ[Aib]NFVNWLLAQRPSSGAPPPS-NH2 [Compound 138]	1000	0.0004
Me-Y[Aib]EGTFISDYSIAKDR[Aib]AQ[Aib]DFVNWLLAQRPSSGAPPPS-OH (not fully specified (residues 1, 14)) [Compound 146]	112	0.0005
Me-Y[Aib]EGTFISDYSIALDR[Aib]AQ[Aib]K([AEEA-AEEA-γGlu-γGlu-C15 diacid])FVNWLLAQSG-OH [Compound 149]	25.7	0.0007
